# Article PMC3081289 (PLoS ONE, 2011)
# Molecular target: T1, human Epidermal Growth Factor Receptor 2 (HER2), extracellular domain (Homo sapiens, UniProt P04626)
# T1 construct: HER2 (human Epidermal Growth Factor Receptor 2), extracellular domain (ECD); also called HER2-ECD; HER2 ECD; source: expressed and purified as described [54]
# Assay: SPR; BIAcore 3000; VEGF_(8–109) or HER2 ECD immobilised on CM5 chips; serial dilutions of Fab in PBS with 0.05% Tween20 injected at 30 µl/min; 30°C; 1:1 Langmuir fit; KD from the ratio of kon and koff
# Details: both partners purified
binder,measurement,value
"bH1 Fab (HER2/VEGF dual specific variant of Herceptin) (Fab, V domains shown, Isolated from a phage library that randomised the light chain CDRs of Herceptin [22]) VH: not shown VL: DIQMTQSPSSLSASVGDRVTITCRASQDIPRSISGYVAWYQQKPGKAPKLLIYWGSYLYSGVPSRFSGSGSGTDFTLTISSLQPEDFATYYCQQHYTTPPTFGQGTKVEIK",Kd,20 nM
